Assay results from the supplement of paper PMC10567573.

B1: TRAF3IP2 (parent)
chain: PGQPLPGASVRGLHPVQKVILNYP
B2: DYRK1B (parent)
chain: ARKYFERLPGGGWTLRRTKELRKD

Variants of: B1
Test: protein stability index of a GFP-peptide fusion (GPS, HEK-293T) (PSI 1-6); higher = more stable
Conditions: c terminus: a fixed tail appended
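Note: lentivirally expressed fusions sorted by FACS into six bins by GFP to DsRed ratio, PSI derived from sequencing read proportions per bin multiplied by bin number.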

Protein stability index, by site and new letter:
L13: R 3.68 | S 3.42 | T 3.56 | V 2.85 | W 3.02 | Y 2.26
H14: A 3.45 | C 3.3 | D 3.67 | E 3.96 | F 2.61 | G 2.59 | I 3.04 | K 3.51 | L 2.83 | M 2.69 | N 3.24 | P 3.67 | Q 3.67 | R 3.37 | S 3.19 | T 3.29 | V 2.96 | W 2.15 | Y 2.82
P15: A 2.29 | C 2.13 | D 3.53 | E 3.12 | G 2.76 | H 3.08 | I 1.76 | K 2.75 | L 2.25 | M 2.05 | N 2.92 | Q 3.85 | R 3.39 | S 2.79 | T 2.48 | V 2.02 | Y 1.91
V16: A 3.24 | C 2.93 | D 4.08 | E 3.44 | F 2.83 | H 3.03 | I 3.09 | L 2.57 | M 2.72 | N 3.61 | P 2.66 | Q 3.63 | R 3.49 | S 3.46 | T 3.36 | W 2.54 | Y 2.04
Q17: A 2.62 | C 2.52 | E 2.95 | F 1.26 | G 3.1 | H 2.9 | I 2.24 | K 2.97 | L 1.71 | M 2.43 | N 2.8 | P 3.51 | R 3 | S 2.77 | T 2.81 | V 1.35 | W 1.87 | Y 3.02
K18: A 2.64 | C 2.09 | D 3.6 | F 2.3 | G 3.57 | H 2.85 | I 2.08 | L 2.31 | M 2.72 | N 2.65 | P 2.99 | Q 3.78 | R 2.64 | S 3.27 | T 3.38 | V 2.02 | W 2.76 | Y 2.52
V19: A 3 | C 3.16 | D 3.23 | E 4.06 | F 2.45 | H 3.06 | I 3.26 | K 3.32 | L 3.23 | M 2.74 | N 3.59 | P 3.29 | Q 3.71 | R 2.82 | S 3.09 | T 3.59 | W 3.38 | Y 2.91
I20: A 3.89 | C 3.25 | D 3.84 | E 3.91 | F 3.38 | H 2.95 | K 4.01 | L 3.45 | M 3.42 | N 3.72 | P 3.36 | Q 3.87 | R 3.89 | S 4.67 | T 3.03 | V 2.93
L21: C 3.23 | D 4.22 | E 3.71 | F 2.79 | G 3.64 | H 3.63 | I 3.5 | K 3.99 | M 3.45 | N 3.6 | P 3.66 | Q 3.79 | R 2.76 | S 3.55 | T 3.71 | V 2.87 | W 2.22 | Y 3.24
N22: A 2.74 | C 2.51 | D 3.13 | E 3.51 | F 1.59 | G 2.54 | H 2.49 | L 1.83 | M 2.3 | P 3.44 | Q 2.98 | R 4.18 | S 3.27 | T 3.05 | V 1.69 | Y 1.95
Y23: A 3.9 | C 3.42 | D 4.72 | E 3.86 | F 3.45 | G 3.71 | H 3.95 | I 3.19 | K 4.43 | L 2.71 | M 3.36 | N 3.63 | P 4.11 | Q 4.07 | R 3.5 | S 4.02 | T 3.43 | V 3.26 | W 2.52
P24: A 3.16 | C 2.69 | D 3.68 | E 3.31 | F 1.78 | G 2.56 | H 2.38 | I 1.77 | K 3.43 | L 2.13 | M 1.22 | N 3.5 | Q 3.11 | R 2.65 | S 2.7 | T 2.71 | V 1.93 | W 2.72 | Y 1.79

Variants of: B2
Test: as above
Conditions: c terminus: a fixed tail appended

Protein stability index, by site and new letter:
A1: D 4.11 | E 3.96 | F 2.44 | G 3.78 | H 3.66 | I 2.47 | K 4.13 | L 2.36 | M 2.84 | N 3.69 | P 2.89 | Q 3.7 | R 3.19 | S 3.9 | T 3.31 | V 3.19 | Y 2.27
R2: A 3.77 | C 3.03 | D 4.1 | E 4.64 | F 3.89 | G 3.74 | H 2.73 | I 2.83 | K 4.25 | L 2.96 | M 2.79 | N 3.55 | P 4.56 | Q 3.33 | S 4.28 | T 3.52 | W 2.38 | Y 3.85
K3: A 3.79 | C 3.24 | E 4.13 | F 1.98 | G 3.51 | H 3.56 | I 1.92 | L 2.48 | M 3.12 | N 2.5 | P 2.96 | Q 3.67 | R 3.9 | S 3.55 | T 3.55 | V 2.69 | W 2.6 | Y 2.58
Y4: A 2.7 | C 3.29 | D 4.48 | E 3.76 | F 2.91 | G 4.37 | H 4.07 | I 2.87 | L 3.14 | M 3.21 | N 4.17 | P 4.82 | Q 3.34 | R 4.29 | S 3.37 | T 3.14 | V 3.44 | W 2.2
F5: A 3.86 | D 3.84 | E 4.26 | G 3.63 | H 3.82 | I 2.91 | K 4.25 | L 3.83 | M 2.98 | N 4.02 | Q 3.71 | R 3.58 | S 4.35 | V 3.98 | Y 4.08
E6: A 4.08 | C 3.85 | D 3.69 | F 3.37 | H 3.34 | I 3.38 | K 2.78 | L 2.64 | M 2.36 | N 3.07 | P 3.39 | Q 2.55 | R 4.86 | S 3.21 | T 3.78 | V 3.35 | W 2.67 | Y 3.62
R7: A 3.3 | C 2.88 | D 3.21 | E 4.31 | F 2.41 | G 2.84 | H 3.08 | I 2.64 | K 3.52 | L 2.77 | M 3.67 | N 2.83 | P 3.94 | Q 4.13 | S 3.23 | T 2.99 | V 3.33 | W 2.81 | Y 3.25
L8: C 3.18 | D 4.19 | E 3.71 | F 2.57 | H 3.32 | I 3.5 | M 3.47 | N 3.4 | P 3.85 | Q 3.38
